Assay results as given in US20100159560.

What was measured:
[1] = target: T1, Streptomyces subtilisin inhibitor (SSI) derived from actinomycetes, P01006
T1 chain: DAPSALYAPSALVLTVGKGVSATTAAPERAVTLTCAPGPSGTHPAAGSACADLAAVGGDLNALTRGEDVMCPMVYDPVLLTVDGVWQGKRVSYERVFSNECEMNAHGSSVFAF

[2] = target: T2, protransglutaminase of Streptoverticillium mobaraense IFO13819 (pro-MTG), P81453
T2 chain: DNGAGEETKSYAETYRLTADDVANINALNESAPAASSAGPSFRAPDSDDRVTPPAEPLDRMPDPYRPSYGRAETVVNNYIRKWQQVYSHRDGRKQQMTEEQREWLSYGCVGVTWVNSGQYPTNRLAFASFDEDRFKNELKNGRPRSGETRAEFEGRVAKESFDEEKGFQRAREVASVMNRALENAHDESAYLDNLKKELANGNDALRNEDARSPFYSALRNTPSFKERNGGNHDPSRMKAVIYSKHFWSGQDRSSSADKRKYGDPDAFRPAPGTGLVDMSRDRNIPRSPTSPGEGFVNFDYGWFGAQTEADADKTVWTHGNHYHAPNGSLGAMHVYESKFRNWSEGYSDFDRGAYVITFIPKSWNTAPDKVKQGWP

[3] = target: T3, synthetic peptide Gly-Pro-Ser-Phe-Arg-Ala-Pro-Asp-Ser
T3 chain: GPSFRAPDS

B1: neutral metalloprotease SVP35 from Streptoverticillium mobaraense IFO13819 (protein)
chain: GTGTSTYSGTVPLTTTKSGSQYQLNDGARGGHKTYDLNQGTSGTGSLFTNSTDTWGGGRQTAGVDAHYGAAVTWDFYKNVFGRNGIRNDGKAAYSRVHYGNSYVNAFWSDSCFCMTYGDGQNNKNPLTALDVAAHEMSHGVTAATAKLVYSGESGGLNEATSDIFGTAVEFYANNKTDVGDYLIGEKINIYGDGKPLRYMDKPSKDGKSKDSWYSGIGGVDVHYSSGPANHFFYLLSEGSGKKTINGVDYDSPTADGSKVTGIGRDKAQKIWYKALTTQFTSNTNYAKARTGTLNAAASLYGNNSAEYKAVAAAWSAINVK
- relative activity (Gly-Pro-Ser-Phe-Arg-Ala-Pro-Asp-Ser cleavage activity, absence of compounds = 100%) [1]: strongly inhibited
- cleavage points (HPLC separation and sequencing of peptide fragments) [2]: cleaved before (at the N-terminal of) especially Phe, often Leu, sometimes Tyr, Trp, Ile, Val
- conversion of pro-MTG to mature MTG (SDS-PAGE time course; TG activity by the hydroxamate method), substrate:enzyme = 200:1 [2]: pro-MTGs were converted to the mature forms, and the produced MTGs were not reduced even after a long-term reaction
- cleavage points (HPLC separation and sequencing of peptide fragments) (insulin B): cleaved before (at the N-terminal of) especially Phe, often Leu, sometimes Tyr, Trp, Ile, Val
- cleavage activity on the peptide substrate (HPLC, decrease of substrate) [3]: SVP35 was allowed to act on Gly-Pro-Ser-Phe-Arg-Ala-Pro-Asp-Ser (SEQ ID NO: 11) as a substrate
